According to patent US20030022355A1:

Target: fiber receptor (cellular receptor for wild-type adenoviral fiber protein)
Assay: competition on A549 cells; labelled competitor GV10 UTV; soluble fiber at 0 to about 10 ug/ml

## soluble wild-type fiber protein
  percent of GV10 UTV binding inhibited: 40%
